Common to all, as to test: NADH formation at A340
Substrate in data set [1]: NC(=O)c1ccc[n+]([C@@H]2O[C@H](COP(=O)(O)OP(=O)(O)OC[C@H]3O[C@@H](n4cnc5c(N)ncnc54)[C@H](O)[C@@H]3O)[C@@H](O)[C@H]2O)c1
The data set is classed as biochemical, Escherichia coli. Particulars: E4P 8 mM, 50 mM PPi buffer pH 8.6, 1 mM DTT, 37 °C, varied: cofactor. An excerpt: (§1) NADH formation at A340 on Eco_Epd

Substrate in data set [2]: O=C[C@H](O)[C@H](O)COP(=O)(O)O
The data set is classed as biochemical, Escherichia coli. Particulars: NAD+ 2 mM, 50 mM PPi buffer pH 8.6, 1 mM DTT, 37 °C.
Description: as §1

Substrate in data set [3]: NC(=O)c1ccc[n+]([C@@H]2O[C@H](COP(=O)(O)OP(=O)(O)OC[C@H]3O[C@@H](n4cnc5c(N)ncnc54)[C@H](O)[C@@H]3O)[C@@H](O)[C@H]2O)c1
The data set is classed as biochemical, Brumicola nitratireducens. Particulars: E4P 8 mM, 50 mM PPi buffer pH 8.6, 1 mM DTT, 37 °C, varied: cofactor. An excerpt: (§2) NADH formation at A340 on […]

Substrate in data set [4]: O=C[C@H](O)[C@H](O)COP(=O)(O)O
The data set is classed as biochemical, Brumicola nitratireducens. Particulars: NAD+ 2 mM, 50 mM PPi buffer pH 8.6, 1 mM DTT, 37 °C.
Description: as §2

B1: Eco_Epd (Escherichia coli K-12) (protein)
chain: TVRVAINGFGRIGRNVVRALYESGRRAEITVVAINELADAAGMAHLLKYDTSHGRFAWEVRQERDQLFVGDDAIRVLHERSLQSLPWRELGVDVVLDCTGVYGSREHGEAHIAAGAKKVLFSHPGSNDLDATVVYGVNQDQLRAEHRIVSNASCTTNCIIPVIKLLDDAYGIESGTVTTIHSAMHDQQVIDAYHPDLRRTRAASQSIIPVDTKLAAGITRFFPQFNDRFEAIAVRVPTINVTAIDLSVTVKKPVKANEVNLLLQKAAQGAFHGIVDYTELPLVSVDFNHDPHSAIVDGTQTRVSGAHLIKTLVWCDNEWGFANRMLDTTLAMATVAFR
In general, Km refers to the concentration of substrate that gives half-maximal velocity. As usually defined, the kcat is the number of substrate molecules converted per active site and unit of time at saturation. A word on the kcat/Km: it is the turnover number divided by the Michaelis constant. B1: in data set [1], the Km was determined as 717 µM, the kcat worked out at 3.23 s⁻¹ and the kcat/Km was 4510 M⁻¹ s⁻¹. In data set [2], the Km is 969 µM, the turnover number (kcat) was determined as 0.15 s⁻¹ and the kcat/Km amounted to 155 M⁻¹ s⁻¹.

B2: Gni_Epd (Brumicola nitratireducens FR1064) (protein)
chain: MLRIAINGFGRIGRNVLRALYESGRNDQIQVVAINEIASPEGVAHLLKYDTAHGRFKGTVDYTDQCLIVNGDKIPLFQKNNIEELAWSTVNVDIVLECTGVFSSRESAQQHIDNGARKVLFSQPCGQDMDATIVFGVNHKTLKPSDVIVSNGSCTTNCIVPIIQVLDEAFGVESGTITTIHSSMNDQQVIDAYHPDLRRTRAASQSIIPVDTRLHVGIERILPRFAGKFEAIAVRVPTINVTAMDLSVTLRDKVTVSDVNAVLKKSAHGELKRIIDYTEEPLVSVDFNHDPHSSIVDGTQTRVSHKQLVKTLVWCDNEWGFANRMLDTALHMHQLDS
Consider B2, for which, in data set [3], the Km turned out to be 51 µM, the kcat came out at 0.313 s⁻¹ and the kcat/Km came to 6140 M⁻¹ s⁻¹. Moreover, in data set [4], the Km amounted to 737 µM, the kcat worked out at 0.323 s⁻¹ and the kcat/Km turned out to be 438 M⁻¹ s⁻¹.
